Source: patent US20210253725A1 (BIONTECH, published 2021)

Assays:
[1] = biological target: T1, CD27 expressed on the cell surface of HT1080_CD27 cells (human, UniProt P26842 20-260); experiment: HT1080_CD27 cells, imaging
T1 construct: whole, on cells; species not restated for the HT1080 transfectant
T1 sequence (looked up): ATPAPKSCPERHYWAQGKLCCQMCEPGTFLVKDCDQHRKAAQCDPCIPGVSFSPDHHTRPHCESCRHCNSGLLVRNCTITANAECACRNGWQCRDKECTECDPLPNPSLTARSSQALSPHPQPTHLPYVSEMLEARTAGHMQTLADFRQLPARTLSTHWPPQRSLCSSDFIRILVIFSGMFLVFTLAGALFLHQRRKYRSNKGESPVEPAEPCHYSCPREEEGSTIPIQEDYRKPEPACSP

[2] = biological target: T2, CD27 protein (His-tagged, Sino Biological Inc. 10039-H08B1) (human, UniProt P26842 20-192); experiment: ELISA, coated His-tagged CD27
T2 construct: bought protein coated on ELISA plates; also called TNFRSF7; not shown: His tag
T2 sequence (looked up): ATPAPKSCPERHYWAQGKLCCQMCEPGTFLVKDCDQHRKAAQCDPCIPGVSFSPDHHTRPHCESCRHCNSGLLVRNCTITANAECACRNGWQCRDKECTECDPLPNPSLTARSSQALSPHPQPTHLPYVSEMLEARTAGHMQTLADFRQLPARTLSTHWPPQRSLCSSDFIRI

[3] = biological target: T1, CD27 expressed on the cell surface of …; experiment: cell-based or functional assay
[4] = biological target: T3, CD134 protein (His-tagged, Sino Biological Inc. 10481-H08H) (human, UniProt P43489 29-216); experiment: ELISA, coated His-tagged CD134
T3 construct: bought protein coated on ELISA plates; also called OX40; TNFRSF4; not shown: His tag
T3 sequence (looked up): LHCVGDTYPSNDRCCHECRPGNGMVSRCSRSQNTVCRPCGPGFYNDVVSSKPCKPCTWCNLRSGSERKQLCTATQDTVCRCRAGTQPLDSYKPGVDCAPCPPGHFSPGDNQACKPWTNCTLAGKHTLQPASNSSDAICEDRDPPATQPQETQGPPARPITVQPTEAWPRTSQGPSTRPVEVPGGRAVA

[5] = biological target: T4, CD134 expressed on the cell surface of HT1080_OX40 cells (human, UniProt P43489 29-277); experiment: HT1080_OX40 cells, imaging
T4 construct: whole, on cells; species not restated for the HT1080 transfectant
T4 sequence (looked up): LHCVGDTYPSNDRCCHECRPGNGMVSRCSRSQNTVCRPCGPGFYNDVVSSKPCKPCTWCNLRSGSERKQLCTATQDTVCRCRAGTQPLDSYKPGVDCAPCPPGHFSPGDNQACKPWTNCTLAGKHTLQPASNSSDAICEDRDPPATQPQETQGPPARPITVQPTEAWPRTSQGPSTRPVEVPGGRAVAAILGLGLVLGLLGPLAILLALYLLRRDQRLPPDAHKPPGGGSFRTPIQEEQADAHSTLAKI

[6] = biological target: T4, CD134 expressed on the cell surface of …; experiment: cell-based or functional assay
Note: test concentration or dose not given here.

B1: P018.S.05.A.A06 (antibody, V domains shown)
VH: QSLEESGGRLVTPGTPLTLTCTVSGIDLNNNAMSWVRQAPGEGLEWIGIISTAGTTTYASWTKGRFTISKTSTTVDLKITSPTTEDTATYFCARAAYFSYGYINLWGQGTLVTVSS
VL: DIVMTQTPASVEAAVGGTVTIKCQASQNIGNALAWYQQKSGQPPKLLIYSASTLASGVPSRFKGSGSGTEFTLTISDLESADATTYFCQSYVYSDGNVFGGGTEVVVK
notes: V regions on human Ig constant parts; also called AB27_82
For B1, the “Cellular binding assay [RFU]” value [1] was 374 RFU, the “ELISA [abs. corr.]” value [2] was 3.11 abs. corr and the “Functional assay Cross-linked by F(ab′)2 fragment IL-8” value (from here on “Functional assay Cross-linked”) [3] was 1.58 abs. corr. For the same binder, the “Functional assay IL-8” value [3] was 0.324 abs. corr.

B2: P018.S.09.A.F05 (antibody, V domains shown)
VH: QEQLEESGGDLVKPGASLTLTCTASGFSFSSNYCMCWVRQAPGKGLEWIACICAGASGATYYASWAKGRFTVSKTSSTTVTLQMTSLTGADTATYFCARYDNSGWGDFKLWGPGTLVTVSS
VL: DIVMTQTPASVSEPVGGTVTINCQASQNIGTYLAWYQQKPGQRPKLLIYAASYLASGVPSRFKGSGSGTEVALTISDLESADAATYYCQNTYYDSPVVGGAFGGGTEVVVK
notes: V regions on human Ig constant parts; also called AB27_157
In the case of B2, the “Cellular binding assay [RFU]” value [1] is reported as 400 RFU, the “ELISA [abs. corr.]” value [2] is reported as 3.12 abs. corr and the “Functional assay Cross-linked” value [3] is reported as 1.68 abs. corr. For the same binder, the “Functional assay IL-8” value [3] was 0.158 abs. corr.

B3: P018.S.05.A.D03 (antibody, V domains shown)
VH: QEQLEESGGDLVQPEGSLTLTCTVSGFSFNSNYWICWVRQAPGKGLEWIACIMTGDGSTYYATWAKGRFTISKTSSTTVTLQMTSLTAADTATYFCARGYDGIHGGDNYGHVFNLWGPGTLVTVSS
VL: AFELTQTPFSVSAVVGGTVTINCQASENIYSLLAWYQQKPGQPPKLLIYRASTLASGVPSRFKGSGSGTQFTLIISDLESGDAATYYCQSYYINSSNSFGGGTEVVVK
notes: V regions on human Ig constant parts; also called AB27_86
B3 was tested, and the “Cellular binding assay [RFU]” value [1] was 321 RFU, the “ELISA [abs. corr.]” value [2] was 3.1 abs. corr and the “Functional assay Cross-linked” value [3] was 1.28 abs. corr. For the same binder, the “Functional assay IL-8” value [3] was 0.1 abs. corr.

B4: P018.S.10.A.B02 (antibody, V domains shown)
VH: QSVEESGGRLVTPGGSLTLSCTVNGFSLSSHGVSWVRQAPGKGLEWIGIIYVISGHAYYASWAKGRFTISKTSTTVDLKIASPTTEDTATYFCARGNYGSDSGPNFTRLDLWGQGTLVTVSS
VL: AQVLTQTPSPVSATVGGTLTINCQASQSLYNNDYLAWYQQKPGQPPKLLIYLASTLASGVSSRFKGSGSGTQFTLTISGVQSDDAATYYCQGEFSCSSGDCLAFGGGTEVVVK
notes: V regions on human Ig constant parts; also called AB27_167
In the case of B4, the “Cellular binding assay [RFU]” value [1] is reported as 249 RFU, the “ELISA [abs. corr.]” value [2] is reported as 3.11 abs. corr and the “Functional assay Cross-linked” value [3] is reported as 1.91 abs. corr. The “Functional assay IL-8” value [3] was 0.47 abs. corr.

B5: P018.S.09.A.G06 (antibody, V domains shown)
VH: QSVEESGGRLVTPGTPLTLTCTASGFSLSNYHMSWVRQAPGKGLEWIGIIYAGSDSTWYASWAKGRFTISKTSTTVDLKITSPTTEDTATYFCARQPGGGASDTQLDLWGQGTLVTVSS
VL: AAVLTQTASPVSAAVGGTVTINCQSSQNIFDNNQLSWFQHKSGQSPKLLIYRASTLASGVPSRFKGSGSGTQFTLTISDVQSDDAATYYCLGGYSSSSDTVFGGGTEVVVK
notes: V regions on human Ig constant parts; also called AB27_159
For B5, the “Cellular binding assay [RFU]” value [1] was 338 RFU, the “ELISA [abs. corr.]” value [2] was 3.12 abs. corr and the “Functional assay Cross-linked” value [3] was 1.34 abs. corr. For the same binder, the “Functional assay IL-8” value [3] was 0.467 abs. corr.

B6: P018.S.12.A.H03 (antibody, V domains shown)
VH: QSLEESRGGLVQPEGSLTLTCKASGFSFSSGYYMCWVRQAPGKGLEWIGCIYSGSDSACYASWAKGRFTISKTSSTTVTLQMTSLTVADTATYFCVRDLGDYNALSYTINLWGPGTLVTVSS
VL: DVVMTQTPSSVSAAVGGTVTIKCQASQSISTNLAWYQEKAGQPPKLLIYRASTVASGVPSRFKGSGSGTQFTLTISDLESADATTYFCQCIDYDDYGGTFGGGTEVVVK
notes: V regions on human Ig constant parts; also called AB134_89
B6 was tested, and the “ELISA [abs. corr.]” value [4] was 2.48 abs. corr, the “Cellular binding assay [RFU]” value [5] was 496 RFU and the “Functional assay Cross-linked” value [6] was 1.27 abs. corr. For the same binder, the “Functional assay IL-8” value [6] was -0.074 abs. corr.

B7: P018.S.03.A.D05 (antibody, V domains shown)
VH: QSLEESGGRLVTPGTPLTLTCTASGFSLSSYYITWVRQAPGEGLEWIGTISTAGNTYFASWANGRFTISRTSTTVDLKMTSPTTEDTATYFCARDGAGDSNYYRNLWGQGTLVTVSS
VL: DIVLTQTPASVEAAVGGTVTIKCQASQSIDRFLAWYQQKPGQPPKLLIYDASDLASGVPSRFSGSGYGTEFTLTISGVQSEDAATYYCQQGYYISDIHNVFGGGTEVVVK
notes: V regions on human Ig constant parts; also called AB27_50
In the case of B7, the “Cellular binding assay [RFU]” value [1] is reported as 324 RFU, the “ELISA [abs. corr.]” value [2] is reported as 3.12 abs. corr and the “Functional assay Cross-linked” value [3] is reported as 1.5 abs. corr. The “Functional assay IL-8” value [3] was 0.5 abs. corr.

B8: P018.S.05.A.B06 (antibody, V domains shown)
VH: QSVEESGGRLVTPGTPLTLTCTVSGFSLNTYVMSWVRQAPGKGLEWIGYIDYGGAPYYASWAKGRFTISKTSTTVELKITSPTIEDTATYFCARGGYGGYVLVTVLWGPGTLVTVSS
VL: DVVMTQTPASVSEPVGGTVTIKCQASQNIYSSLAWYQQKPGQPPKLLIYQASTLASEVPSRFKGSGSGTEFTLTINDLESADAATYYCQTYYGGSTYGNGFGGGTEVVVE
notes: V regions on human Ig constant parts; also called AB27_84
B8 was tested, and the “Cellular binding assay [RFU]” value [1] was 309 RFU, the “ELISA [abs. corr.]” value [2] was 3.1 abs. corr and the “Functional assay Cross-linked” value [3] was 1.7 abs. corr. The “Functional assay IL-8” value [3] was 0.22 abs. corr.

B9: P018.S.07.A.A02 (antibody, V domains shown)
VH: QSVEESGGRLVTPGTPLTLTCTVSGFSLSSYVMSWVRQAPGKGLEWIGYIDYGGAPYYASWAKGRFTISKTSTTVELKITSPTIEDTATYFCARGGYGGYVLVTVLWGPGTLVTVSS
VL: DVVMTQTPASVSEPVGGTVTIKCQASQNIYSSLAWYQQKPGQPPKLLIYQASRLASEVPSRFKGSGSGTEFTLTISDLESADAATYYCQTYYGGSTYGNGFGGGTEVVVE
notes: V regions on human Ig constant parts; also called AB27_113
B9 was tested, and the “Cellular binding assay [RFU]” value [1] was 314 RFU, the “ELISA [abs. corr.]” value [2] was 3.08 abs. corr and the “Functional assay Cross-linked” value [3] was 1.85 abs. corr. The “Functional assay IL-8” value [3] was 0.059 abs. corr.

B10: P018.S.08.A.F01 (antibody, V domains shown)
VH: QSVEESGGRLVTPGTPLTLTCTVSGSDISGYALGWVRQAPGKGLEYIGVIAADGNAYYASWAKGRFTISRTSTTVDLKMTSLTTEDTATYFCARGYSSGWGTYGYFDLWGQGTLVTVSS
VL: DIVMTQTPASVSAAVGGTVTIKCQASEDIYSYLAWYQQKPGQPPKLLIYRASTLESGVPSRFKGSGSGTQFTLTISDLESADAATYYCQSYYYSHSTTYSNVFGGGTEVVVK
notes: V regions on human Ig constant parts; also called AB27_140
B10 was tested, and the “Cellular binding assay [RFU]” value [1] was 395 RFU, the “ELISA [abs. corr.]” value [2] was 3.1 abs. corr and the “Functional assay Cross-linked” value [3] was 1.11 abs. corr. For the same binder, the “Functional assay IL-8” value [3] was 0.211 abs. corr.

B11: P018.S.01.A.E02 (antibody, V domains shown)
VH: QSVEESGGRLVTPGTPLTLTCTASGFSLSNYYMSWVRQAPGKGLEWIGIISTYGDTYYATWAKGRFTISKTSTTVDLKITSPTTEDTATYFCARGSSDTYYTYFNLWGPGTLVTVSS
VL: DIVMTQTPASVEAAVGGTVTIKCQASQKIYNNLAWYQQKPGQPPKLLIYSASTLASGVPSRFKGSGSGTEFTLTISDLESADAATYYCQSYGVSANTISYGLPFGGGTEVVVK
notes: V regions on human Ig constant parts; also called AB27_14
B11 was tested, and the “Cellular binding assay [RFU]” value [1] was 360 RFU, the “ELISA [abs. corr.]” value [2] was 3.13 abs. corr and the “Functional assay Cross-linked” value [3] was 1.17 abs. corr. The “Functional assay IL-8” value [3] was 0.276 abs. corr.

B12: P018.S.04.A.E05 (antibody, V domains shown)
VH: QSLEESGGDLVKPGASLTLTCTASGFSFSSDYYMCWVRQAPGKGLEWIACISAGSSGSIYYASWAKGRFTISKTSSTTVTLQMTSLTAADTATYFCAREASDSIYYPIFNLWGPGTLVTVSS
VL: AAVLTQTPSPVSAAVGGTVSISCQSSKSVYNNNALSWFQQKPGQPPKLLIYGASTLPSRVPSRFKGSGSGTQFTLTISDVQSDDAATYYCIGGYSSSSDTNAFGGGTEVVVK
notes: V regions on human Ig constant parts; also called AB27_76
With B12 the “Cellular binding assay [RFU]” value [1] was 319 RFU, the “ELISA [abs. corr.]” value [2] was 3.11 abs. corr and the “Functional assay Cross-linked” value [3] was 1.77 abs. corr. For the same binder, the “Functional assay IL-8” value [3] was 0.747 abs. corr.
